Measured values taken from patent US20030186258.

Molecular target: fusion protein PNP20aa-hGH (UniProt P01241)
Sequence (P01241 27-217): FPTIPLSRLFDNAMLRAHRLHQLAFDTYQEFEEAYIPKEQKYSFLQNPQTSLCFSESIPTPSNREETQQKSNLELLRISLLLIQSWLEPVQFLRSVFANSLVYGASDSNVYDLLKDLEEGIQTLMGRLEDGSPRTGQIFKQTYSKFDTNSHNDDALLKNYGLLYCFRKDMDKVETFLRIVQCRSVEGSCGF

## ss-Kex1 protease immobilised on Eupergit C250L resin
  digestion of the fused protein (SDS-PAGE), 15 hours: almost complete: digestion is obtained after 15 hours
